According to patent US10788499B2, “Methods for assaying palmitoyl protein thioesterase 1 and tripeptidyl peptidase activity in dried blood spots for detection of neuronal ceroid lipofuscinoses in newborns” (University of Washington, priority 2015, dated 2020):
One block for each molecule: values may come before it. Ends that are not written are not given here. * marks the point of attachment. Lauroyl = CCCCCCCCCCCC(=O)*

Experiments:
[1] = biological target: T1, tripeptidyl peptidase 1 (TPP1) (Homo sapiens, UniProt O14773); assay: TPP1 assay in dried blood spots with synthetic substrate, tandem mass spectrometry (SRM); type: biochemical
T1 construct: from tissue; host or cells: dried blood spots from human newborns, NCL II patients and a control
T1 sequence (O14773 196-563): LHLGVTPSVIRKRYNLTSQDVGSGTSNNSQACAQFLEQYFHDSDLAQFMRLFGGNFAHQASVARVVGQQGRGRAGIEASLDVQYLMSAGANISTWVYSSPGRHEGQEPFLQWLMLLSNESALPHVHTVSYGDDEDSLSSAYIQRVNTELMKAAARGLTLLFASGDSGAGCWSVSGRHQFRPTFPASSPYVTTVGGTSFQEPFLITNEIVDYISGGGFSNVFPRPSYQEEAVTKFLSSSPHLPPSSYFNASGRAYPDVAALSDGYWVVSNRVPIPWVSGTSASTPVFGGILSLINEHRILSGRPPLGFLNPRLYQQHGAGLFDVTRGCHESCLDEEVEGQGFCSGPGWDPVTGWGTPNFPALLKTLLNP
Protocol: (§1) Electrospray-MS/MS was carried out on a Waters Quattro Micro tandem quadrupole (quadrupole-hexapole-quadrupole) instrument using a positive ionization mode and selected reaction monitoring (SRM). Samples (10 μL) were flow-injected with an autosampler in an acetonitrile/water (v/v=80:20) solution containing 0.1% formic at a flow rate of 0.2 mL/min. The mass spectrometer settings were as follows: Capillary voltage 3.5 kV; cone 35 V; extractor 2.0 V; RF lens, 0.2 V; source temperature, 120° C.; desolvation temperature, 250° C.; cone gas flow, 50 L/h; desolvation gas flow, 500 L/h; LM 1 resolution, 14.8; HM 1 resolution, 14.8; ion energy 1, 0.2 eV; entrance, 2 V; collision, 25 eV; exit, 15 V; LM 2 resolution, 14.8; HM 2 resolution, 14.8; ion energy 2, 1.0 eV; multiplier, 650 V; gas cell Pirani pressure, 2.21×10^−3 mbar; dwell time 100 ms. Shorter dwell times (10 ms) were also investigated on the Quattro Micro instrument but led to increased coefficients of variation (CV) for intra-assay measurements from 1.5% at 100 ms to 4% at 10 ms, all for triplicate injections. The precursor ion-fragment ion SRM transitions for the PPT1 assays were monitored at m/z 762.5→m/z 423.5 and m/z 678.4→m/z 423.4 for PPT1-P and PPTI-IS, respectively, corresponding to the formation of the abundant y4 fragment ion of the peptide (FIGS. 1A and 1B). The SRM transitions for the TPP1 assays were monitored at m/z 308.3→m/z 208.3 and m/z 317.3→m/z 209.3 for TPP1-P and TPP1-IS, respectively, as shown in FIG. 2.
TPP1 substrate solution was prepared by dissolving 5 mg TPP1 substrate (FIG. 5 (right)) in 1.5 mL of dimethyl sulfoxide (DMSO). 1 mg TPP1 IS was dissolved in 1.5 mL of assay buffer, which contained 0.15 M NaCl and 0.1 M sodium acetate buffer at pH 4.0. This concentrated TPP1 IS solution was further diluted with stock assay buffer to make a 300 μM IS solution. The assay cocktail was a 100 μL mixture composed of 7.2 μL of substrate solution (40 nmol), 5 μL of 300 μM IS solution (1.5 nmol) and additional 87.8 μL of stock assay buffer. […]

[2] = Non-enzymatic hydrolysis of substrate in blank (absence of DBS), pH dependence; type: physicochemical
Source text: The PPT1 activity is known to have an optimum activity at pH 7 when acting on the natural substrate. […] The production of TPP-P by non-enzymatic hydrolysis in the blank sample at pH 4 was ca. 15 fold lower than that due to TPP1 activity in the DBS.

[3] = Incubation of synthetic PPT1-P in assay buffer with DBS (digestion by proteolytic enzymes in rehydrated DBS); type: in vitro ADME, human; details: 18 h
Protocol: The leveling-off effect can be in part due to enzymatic digestion of PPT1-P by proteolytic enzymes in rehydrated DBS. This was checked by incubating synthetic PPT1-P in the assay buffer with DBS for 18 h. […] Since PPT1-P and PPT1-IS are similar hydrophobic peptides, it is safe to presume that their depletion will occur at similar rates and will not affect their molar ratio. […] Based on these measurements, the incubation time for both PPT1 and TPP1 was set at 10 h. The enzyme kinetics with respect to the synthetic substrates was established through Michaelis-Menten plots which were fitted to obtain the Km and Vmax values (FIGS. 12A and 12B). Each Michaelis-Menten curve was obtained from triplicate activity measurements over an appropriate substrate concentration range (0-500 μM and 0-300 μM). […] The measured Km were used to adjust the initial substrate concentrations in the assays to ≥2 Km value, e.g. 0.46 and 0.40 mM for PPT1-S and TPP1-S, respectively.

[4] = biological target: T2, palmitoyl protein thioesterase 1 (PPT1) (Homo sapiens, UniProt P50897); assay: PPT1 assay in dried blood spots with synthetic substrate, tandem mass spectrometry (SRM); type: biochemical
T2 construct: from tissue; host or cells: dried blood spots from human newborns, NCL patients and a healthy adult control
T2 sequence (P50897 28-306): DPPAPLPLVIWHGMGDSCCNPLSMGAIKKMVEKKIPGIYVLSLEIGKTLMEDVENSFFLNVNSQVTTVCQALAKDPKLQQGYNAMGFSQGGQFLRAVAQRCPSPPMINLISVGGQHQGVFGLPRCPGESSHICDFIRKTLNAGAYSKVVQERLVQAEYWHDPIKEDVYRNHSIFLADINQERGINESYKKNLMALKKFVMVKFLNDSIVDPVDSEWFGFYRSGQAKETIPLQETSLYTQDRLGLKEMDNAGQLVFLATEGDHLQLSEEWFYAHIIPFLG
Protocol: as §1
A 3-mm punch of a dried blood spot was placed in a 1.5 mL polypropylene tube (Eppendorf) and 100 μL of 100 mM phosphate buffer solution (pH 7) containing 46 nmol of PPT1 substrate (PPT1-S, FIG. 5 (left)) and 2.6 nmol of PPT1 internal standard (PPT1-IS) and 0.08% v/v Triton X-100 (ACROS, Cat #21568) was added. The solution was then vortexed briefly and incubated for 10 h at 37° C. in a thermostated air shaker at 250 rpm. After the incubation period was over, the sample was placed in an ice bath and the reaction was quenched by addition of 300 μL of ethyl acetate and 100 μL of deionized water. […]

[5] = biological target: T3, palmitoyl protein thioesterase (Homo sapiens, UniProt P50897); assay: Simplex PPT1 assay (C12 thioester substrate) carried out with recombinant palmitoyl protein thioesterase, LC-MS/MS; type: biochemical; details: 2 μL recombinant PPT1 enzyme, 0.6 mM C12 thioester substrate, pH 6.75
T3 sequence (P50897 28-306): T2 sequence (P50897 28-306)
Protocol: Assay cocktail: a substrate and internal standard stock solution (methanol solution) were pipetted into a vial and dried using a speed vacuum. After all the solvent is removed, the residue was diluted with assay buffer (0.1M phosphate citrate buffer, 0.08% Triton X-100 (or sodium taurocholate), 0.1 mM EDTA (or no EDTA) at pH=6.75) to a final concentration of 0.6 mM (substrate), 30 μM (Internal Standard), and mixed by vortexing.
[…] For the blank control, a 3.2 mm filter paper punch was placed in a vial. 30 μL of assay cocktail was added to each vial, which either includes dried blood spot (or filter paper blanks). The Eppendorf vial is shaken at 37° C. for 16 hrs using an orbital shaker (250 rpm)/incubator.
After the incubation, the assay is quenched with 100 μL of methanol/ethyl acetate=50/50 mixture, and then 400 μL of ethyl acetate, then 200 μL of 0.5M NaCl(aq), pipette up and down 10× times to mix well.
The sample tubes were then centrifuged at 3000 rpm for 5 minutes. 200 μL of upper layer solution (organic layer) was removed, and transferred to a new shallow plate. The solvent was evaporated under nitrogen gas flow, the remaining solid was reconstituted with 100 μL LC-MS solvent (55/45 water/acetonitrile with 0.1% formic acid). The solution was mixed up and down about 10 times with a pipettor.
The plate was placed on the autosampler of the LC-MS/MS for isocratic LC-MS/MS. […]

[6] = TPP1 in DBS, Michaelis-Menten fit, triplicate activity measurements
[7] = PPT1 in DBS, Michaelis-Menten fit, triplicate activity measurements

product produced per DBS ([1]; 10 h incubation): 1.7 nmol/DBS
Km [1, 6]: 53.3 µM
Vmax [1, 6]: 46.0 µmol/L/h
production of TPP-P by non-enzymatic hydrolysis in the blank sample, fold lower than that due to TPP1 activity in the DBS ([2]; pH 4): ca. 15 fold
Molecule: C[C@H](N)C(=O)N[C@@H](C)C(=O)N[C@@H](Cc1ccccc1)C(=O)NCc1ccc(C(=O)NCCCNC(=O)OC(C)(C)C)cc1 [TPP1 substrate]

activity [5]: 40.4682 μmol/Lh
B1: recombinant PPT1 enzyme: recombinant palmitoyl protein thioesterase (protein, UniProt P50897 28-306, looked up)
Palmitoyl-protein …: T2 sequence (P50897 28-306)

Continued, molecule first:

Molecule: Ac-ALLPFGC [PPT1-P]
decrease of PPT1-P compared to a control sample [3]: 25-27%

Molecule: N-Ac-Ala-Leu-Leu-Pro-Phe-Gly-Cys-S—COC11H23 (Ac-ALLPFGC(Lauroyl); also: S-acyl: name COC11H23, mods S-palmitoyl) [PPT1 substrate, cysteine terminated heptapeptide carrying an S-palmitoyl group]
product produced on average per one DBS ([4]; 10 h incubation): 4.7 nmol
Km [4, 7]: 230 µM
Vmax [4, 7]: 217.0 µmol/L/h
non-enzymatic hydrolysis of the thioester bond ([2]; between pH 7 and 8): substantially increased
